The text below walks through data of US20150291685A1 (AstraZeneca / MedImmune, published 2015).

Experiment [1] deals with T1, S. aureus clumping factor protein ClfA (Staphylococcus aureus, UniProt Q2G015 221-559, limits assumed).
T1 sequence (looked up): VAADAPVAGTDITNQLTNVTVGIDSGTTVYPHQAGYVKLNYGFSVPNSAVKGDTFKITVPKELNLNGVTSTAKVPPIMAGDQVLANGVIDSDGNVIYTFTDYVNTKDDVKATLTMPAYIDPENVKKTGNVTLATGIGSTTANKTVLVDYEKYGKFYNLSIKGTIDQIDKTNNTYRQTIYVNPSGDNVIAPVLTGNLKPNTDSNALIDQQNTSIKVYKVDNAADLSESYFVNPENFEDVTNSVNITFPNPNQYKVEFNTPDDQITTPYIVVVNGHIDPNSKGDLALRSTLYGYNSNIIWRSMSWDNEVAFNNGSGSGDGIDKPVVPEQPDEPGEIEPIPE
Put plainly: inhibition of ClfA binding to immobilized fibrinogen; the curve reaches about 60-65 % inhibition [table].

Experiment [2] deals with T1, S. aureus clumping factor protein ClfA. Nature of the experiment: inhibition of ClfA binding to immobilized fibrinogen; the curve reaches about 55-62 % inhibition [table].
Another experiment deals with T2, Neat-1 (Staphylococcus aureus).
T2 construct: domain of IsdH; also called subunit Neat-1 on IsdH; NEAT1 motif of IsdH
Put plainly: competition ELISA: haptoglobin (Hp) binding to Neat-1 of IsdH with rising antibody concentration. (In general: An ELISA detects its analyte on a solid surface through an enzyme-linked reagent.)

For experiment [3], the target named is T3, Neat-2 subunit of IsdH (Staphylococcus aureus, UniProt Q2FXJ2 345-471).
T3 construct: domain: Neat-2; also called subunit Neat-2
T3 sequence (looked up): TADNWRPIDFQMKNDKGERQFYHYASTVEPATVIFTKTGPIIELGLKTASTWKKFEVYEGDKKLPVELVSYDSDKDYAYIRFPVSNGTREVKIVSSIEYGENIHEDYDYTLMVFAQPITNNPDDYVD
Nature of the experiment: hu_IgGFc capture assay, mean of three experiments.

Experiment [4] concerns the target T4, S. aureus Iron regulated surface determinant H (IsdH) (Staphylococcus aureus, UniProt Q2FXJ2 41-864, limits assumed).
T4 sequence (looked up): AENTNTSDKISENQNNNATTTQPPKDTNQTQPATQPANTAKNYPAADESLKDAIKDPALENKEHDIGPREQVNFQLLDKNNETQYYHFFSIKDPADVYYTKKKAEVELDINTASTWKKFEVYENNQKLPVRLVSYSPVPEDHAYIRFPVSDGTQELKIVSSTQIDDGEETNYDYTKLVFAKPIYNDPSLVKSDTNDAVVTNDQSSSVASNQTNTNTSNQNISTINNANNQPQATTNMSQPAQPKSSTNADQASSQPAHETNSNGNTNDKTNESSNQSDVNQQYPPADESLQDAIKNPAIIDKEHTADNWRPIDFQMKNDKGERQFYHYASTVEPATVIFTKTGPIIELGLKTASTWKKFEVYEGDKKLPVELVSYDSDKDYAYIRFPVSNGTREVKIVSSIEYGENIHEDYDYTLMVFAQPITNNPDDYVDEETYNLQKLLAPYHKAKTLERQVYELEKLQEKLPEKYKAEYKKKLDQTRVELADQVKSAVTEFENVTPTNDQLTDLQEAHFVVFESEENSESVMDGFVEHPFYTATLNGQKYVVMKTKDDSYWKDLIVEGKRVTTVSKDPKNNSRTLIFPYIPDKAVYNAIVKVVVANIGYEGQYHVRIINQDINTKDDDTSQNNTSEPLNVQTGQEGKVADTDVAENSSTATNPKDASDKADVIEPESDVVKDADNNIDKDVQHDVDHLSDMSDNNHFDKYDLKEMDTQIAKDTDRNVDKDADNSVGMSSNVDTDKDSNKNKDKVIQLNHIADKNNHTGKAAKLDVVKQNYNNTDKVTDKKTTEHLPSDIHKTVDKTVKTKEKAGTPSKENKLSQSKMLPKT
Put plainly: hu_IgGFc capture assay, mean of three experiments.

Experiment [5] deals with T3, Neat-2 subunit of IsdH. Nature of the experiment: competition ELISA: haptoglobin (Hp) binding to Neat-2 of IsdH with rising antibody concentration.

Changes are numbered by the printed parent chain.

B1: mAb 23D6 (antibody, V domains shown)
VH: QVQLVESGGGVVQPGRSLRLSCAASVFTFSSYGMHWVRQAPGKGLEWVALIWFDGSNEYYADSVKGRFTISRDNSKNTLYLQMNSLRAEDTAVYYCARDRGGGYYYYGMDVWGQGTTVTVSS
VL: DIQMTQSPSSLSASVGDRVTITCRASQGIRNDLGWYQQKPGKAPKRLIYAASSLQSGVPSRFSGSGSGTEFTLTISSLQPEDFATYYCLQHNSYPYTFGQGTKLEIK
notes: also called anti-ClfA antibody 23D6
Turning to B1, the IC50 – broadly, the midpoint of a concentration-inhibition curve – in experiment [1] came to 1.92 µg/mL.

B2: anti-ClfA mAb 11H10 (antibody, V domains shown)
VH: EVQLLESGGGLVQPGGSLRLSCAASGFTFSSFAMSWVRQAPGKGLEWVSAISGSGGNTYYADSVKGRFTISRDNSKNTLYLQMNSLRAEDTAVYYCAKIAFDIWGQGTMVTVSS
VL: B1 VL with A50V, Y96F, Q100P, L104V, E105D
B2: the IC50 in experiment [2] turned out to be 0.871 µg/mL.

B3: mAb 1C1 (antibody, V domains shown)
VH: EVQLLESGGGLVQPGGSLRLSCAASGFTFSRYFMGWVRQAPGKGLEWVSSIYSSGGYTSYADSVKGRFTISRDNSKNTLYLQMNSLRAEDTAVYYCARRWRDGTFDYWGQGTLVTVSS
VL: DIQMTQSPSSLSASIGDRVTISCRASQSVREYLNWYQQKPGKAPKLLIFAASSLQSGVPSRFSGSGSGTDFTLTISSLQPEDFATYYCQQSYSTRFTFGPGTKVDIK
notes: also called antibody 1C1
Turning to B3, the “IC50 (read off the curve)” value with Neat-1 is around 3 µg/mL.

B4: mAb 2F4 (antibody, V domains shown)
VH: EVQLLESGGGLVQPGGSLRLSCAASGFTFSPYMMQWVRQAPGKGLEWVSSIWPSGGKTYYADSVKGRFTISRDNSKNTLYLQMNSLRAEDTAVYYCARVRRGGATDYWGQGTLVTVSS
VL: DIQMTQSPATLSVSPGERATLSCRASQSVSSNLGWYQQKPGQAPRLLIYGASTRATGIPTRFSGSGSGTEFTLTISSLQSEDFATYYCQQYQNWPLLTFGGGTKVEIK
notes: also called antibody 2F4; anti-IsdH mAb 2F4
Consider B4, for which the dissociation constant (Kd) (in general, the equilibrium constant for the complex coming apart) is 2.57 nM with Neat-2 subunit of IsdH [3] and 3.66 nM in experiment [4]. In the experiment with Neat-2 subunit of IsdH [5], the “IC50 (read off the curve)” value is around 1 µg/mL.
